Measured values from patent US20240059762A1 (SINGLE CELL TECHNOLOGY, published 2024).

Target: T1, Recombinant SARS-CoV-2 N protein His tagged (SARS-CoV-2, UniProt P0DTC9 1-419)
T1 construct: also called nucleocapsid (N) protein; recombinant HIS tagged SARS-CoV-2 N protein
Test: BLI (Octet Red 96E), mAb on anti-mouse Fc biosensor, N protein in solution, global 1:1 fit

Row | Binder | Kd [nM] | koff [s⁻¹] | kon [M⁻¹ s⁻¹]
1 | SCT-Pa19 (antibody, mouse IgG1, kappa, V domains shown) VH: QVQLQQPGAELVRPGSSVKLSCKASGYTFTNYWMLWVKQRPMQGLEWIGSIDPSDSETHYNQKFKDKATLTVDKSSSTAYMRLGSLTSEDSAVYYCARDSYGWYFDVWGTGTTVTVSS VL: DIVMTQSQKFMSTSVGDRVSVTCKASQNVGSNVAWYQQKSGQSPKALIYSASYRYSGVPDRFTGSGYGTDFTLTISNVQSEDLAEYFCQQYNNYPLTFGAGTKLELKR | 0.0283 | 1.26e-05 | 444000
2 | SCT-Pa10 (antibody, mouse IgG1, kappa, V domains shown) VH: QVQLQQSGPELVKPGASVKISCKASGYAFSTSWMNWMKQRPGKGLEWIGRIYPGDGETNYNGKFKGKATLTADKSSSTAYMQLSSLTSDDSAVYFCARGANGDYLFYLDYWGQGTTLTVSS VL: DIQMTQTTSSLSASLGDRVTISCSASQDISDFLNWYQQKPDGTVKLLIYYTSSLHSGVPSRFSGSGSGTDYSLTINNLEPEDIATYYCQQYSKLPYTFGGGTKLEIRR | 0.335 | 0.000247 | 738000
3 | SCT-Pa12 (antibody, mouse IgG1, kappa, V domains shown) VH: QVQLQQSGAELARPGASVKLSCKASGYSFTSYGISWVKQRTGQGLEWIGDIYPRSGNTDYNEKFKGKATLTADKSSSTANMQLSSLTSEDSAIYFCARSGDGYLYAMDYWGQGTSVTVSS VL: DIQMTQTTSSLSASLGDRVTISCRASQDISNYLNWYQQKPDGTVKLLIYYTSRLHSGVPSRFSGSGSGTDYSLTISNLEPEDIAPYYCQQYSKLPYTFGSGTKLEIKR | 0.649 | 0.000278 | 428000
4 | SCT-Pa18 (antibody, mouse IgG1, kappa, V domains shown) VH: QVQLQQPGAELVKPGASVKLSCKASGYTFTSYWMQWVKQRPGQGLEWIGEIAPSDSYTNYNQKFKGKATLTVDTSSSTAYMQLSSLTSEDSAVYYCAGGDYYGYDVKTWFAYWGQGTLVTVSA VL: DIQMTQTTSSLSASLGDRVTISCSASQDISNYLNWYQQKPDGTVKLLIYYTSSLHSGVPSRFSGSGSGTGYSLTISNLEPEDIATYYCQQYSKLPYTFGGGTKLEIKR | 0.228 | 0.000127 | 557000
5 | SCT-Pa02 (antibody, mouse IgG1, kappa, V domains shown) VH: QMQLKQSGPGLVQPSQSLSITCTVSGFSLTSYGVHWVRQSPEKGLEWLGVIWSGGGTDYNAAFISRLSISKDNSKSQVFLKMSSLQTDDTAIYYCARGAYYSLDYWGQGTTLTVSS VL: DIVLTQSPASLAVSLGQRATISCRASESVDYDGDNYMNWYQQKPGQSPKLLIYATSNLESRIPARFSGSGSGTEFTLNIHPVEEEDAATYYCLQSYDVPYTFGSGTKLEMKR | 1 | 0.00073 | 730000
6 | SCT-Pa07 (antibody, mouse IgG1, kappa, V domains shown) VH: EVQLQQSGPELVKPGDSVKMSCKASGYTFTDYYMDWVKQSHGKSLEWIGYIYTNNGDTNYNQKFKGKATLTVDKSSSTAYMELHSLTSEDSAVYYCASLYYSNFFDSWGQGTTLTVSS VL: ENVLTQSPAIMSATLGEKVTVSCRARSNVKYMYWYQQKSGASPKLLIYYTSNLASGVPARFSGSGSGTSYSLTISSVEAEDAATYYCQQFTSSPFTFGSGTKLEIKR | 0.188 | 8.63e-05 | 458000
7 | SCT-Pa14 (antibody, mouse IgG1, kappa, V domains shown) VH: EVQLQQSGAELVSPGASVKLSCTASGFNIKDDYMHWVKQRPEQGLEWIGRIDPANGNTKYAPKFQDKATITADTSSNTAYLQLSSLTSEDTAVYYCFYSFYIPYTMDFWGQGTSVTVSS VL: ENVLTQSPAIMSATLGEKVTMSCRASSNVKYMYWYQQKSGASPKLWIYYTSNLTSGVPARFSGSGSGTSYSLTISSVEAEDAATYYCQQFTSSPYTFGSGTKLEIKR | 0.128 | 7.23e-05 | 566000
8 | SCT-Pa01 (antibody, mouse IgG1, kappa, V domains shown) VH: QVTLKESGPGILQPSQTLSLTCSFDGFSLSTFGMGVGWIRQPSGRGLEWLAHIWWDDDKNYKPALKSRLTISKDTSKNQVFLKIANVDTADTATYYCTRMREDSSDYVYYIMDYWGQGTSVIVAS VL: QIVLTQSPSIMSASPGEKVTISCSASSSVSYMYWYQQKPGSSPRPWIYRTSNLASGVPARFSGSGSGTSYSLTITSMEAEDAATYYCQLYHSYPPTWTFGGGTKLEIKR | 0.181 | 8.01e-05 | 442000
9 | SCT-Pa17 (antibody, mouse IgG1, kappa, V domains shown) VH: QVQLQQPGAELVKPGASVKLSCKASGYAFTSSWINWVKRRPGQGLEWIGNVYPRSSSPNYNEKFKGKATLTVDTSSSTAYMQLSSLTSDDSAVYFCARGYGSYWYFDVWGAGTSVTVSS VL: DIQMTQSSSSFSVSLGDRVTITCKASEDIYNRLAWYQQKPGNAPRLLISGATTLETGVPSRFSGSGSGKDYALSITSLQTEDVSTYYCQEYWSLSPTFGGGTKLEIKR | 0.939 | 0.000461 | 491000
10 | SCT-Pa03 (antibody, mouse IgG1, kappa, V domains shown) VH: QVQLKQSGAELVRPGASVKLSCKASGYTFTDYYINWVKQRPGQGLEWIARIYPGNNYAYYDEKFKGKATLTAEKSSSTAYMQLSSLTSEDSAVYFCAKDDGYRFAYWGQGTLVTVSA VL: DIQMTQSSSYLSVSLGGRVTITCKASDHINNWLAWYQQKPGNAPRLLISGATSLETGVPSRFSGSGSGKDYTLSITSLQTEDVATYYCQQYWSTPPTFGGGTKLEIKR | 2.78 | 0.000597 | 215000
11 | SCT-Pa20 (antibody, mouse IgG1, kappa, V domains shown) VH: QVQLQQPGAELVKPGASVKLSCKASGYTFTDYWINWVKQRPGQGLEWIGNIYPGSSDTNYNEKFKRKATLTVDTSSSTAYMQLSSLTSDDSAVYYCARRPLFHAMDYWGQGTSVTVSS VL: DIVLTQSPASLAVTLGQRATISCKASQSINYNGDNYMHWFQQKPGQPTKLLIYTASNLESGVPDRFSGSGSGTDFTLNIHPVEEEDAATYYCQQSKEFPWTFGGGTKLEIKR | 0.00537 | 3.09e-06 | 576000
12 | SCT-Pa08 (antibody, mouse IgG1, kappa, V domains shown) VH: QVQLHQSGAELVKPGASVKLSCKASGYTFTEYSIHWVKQRSGQDLEWIGWFNPGTGSIKYNEKFKDKATLTADKSSSTVYMELSRLTSEDSAVYFCARHGGRWVIQWNFDVWGTGTTVTVSS VL: DIVMSQSPSSLAVSVGEKVTMSCKSSQNLLYSSNQKNFLAWYQQRPGQSPKLLIYWASTRESGVPDRFTGSGTGTDFTLTISSVKAEDLAVYYCQQYYRYPFTFGSGTKLEIKR | 0.897 | 0.000772 | 860000
13 | SCT-Pa16 (antibody, mouse IgG1, kappa, V domains shown) VH: QVQLQQPGTELVKPGASVKLSCKASGYTFTSYWMHWVKQRPGQGLEWIGSVNPSNGGANYNEKFKNKATLTVDKSSSTAYMQLSSLTSEDSAVYYCARRNGFPYYFDYWGQGTTLTVSS VL: DIVMTQSQKFVSTSVGDRVSVTCKASQNVGTNVVWYQQKPGQSPKPLIYSASYRYSGVPDRFTGSGSGTDFTLTISNVQSEDLADYFCHQYNSSPLTFGVGTKLELKR | 1.49 | 0.00154 | 1.04e+06
14 | SCT-Pa09 (antibody, mouse IgG1, kappa, V domains shown) VH: QVQLQQPGAELVKPGTSVRLSCQASGYTFTSSWIHWVKQRTGQGLEWIGEISLTNGDINYNEKFTSKATLTVDKSSSTAYMQLSSLTSEDSAVYYCTIIPDGYSLYWYFDVWGAGTTVTVSS VL: QIVLSQSPPILSASPGARVTMTCRASSSVNYMHWYQQKPGSSPKPWIYATSNLASGVPVRFSGSGSGTSYSLTISRVEAEDAATYYCQQWSSNPPTFGGGTKLEIKR | 0.0531 | 2.67e-05 | 503000
15 | SCT-Pa05 (antibody, mouse IgG1, kappa, V domains shown) VH: EVQLQQSGAELVKPGASVKLSCTTSGFNIKDYYFHWVKQRTEQGLEWIGRIDPEDGETEYAPKFRDKATITADTSSNTAYLQLSSLTSEDTAIYYCARSLYYWGQGTTLTVSS VL: DIVMTQSPSSLSVWAGEKVTMSCKSSQSLLNSGDQKNYLTWYQQKPGQSPKLLIYETSTRDYGVPDRFTGSGSGADFTLTISSVQAEDLAVYYCLNDLTYPLTFGAGTKLELKR | 0.289 | 0.00018 | 624000
16 | SCT-Pa04 (antibody, mouse IgG1, kappa, V domains shown) VH: EVQLQQSGPELVKPGASVKMSCKASGYSFTSYVMHWVKQKPGQGLEWIGYINPYNDGTKYNEKFKGKATLTSDKSSSTAFMDLSSLTSDDSAVYYCSRDDYSNPPFAYWGQGTLVTVSA VL: SIVMTQTPKFLLVSAGDRITITCKASQSVSNNVAWYQQKPGQSPTLLISYASNRFTGVPDRFTGSGYGTDFTFTISIVQAEDLAVYFCQQDYDSPYTFGGGTKLEIKR | 0.0328 | 1.64e-05 | 498000
17 | SCT-Pa15 (antibody, mouse IgG1, kappa, V domains shown) VH: QVQVKQSGPGLVQPSQSLSITCTVSGFSSTSYAIHWVRQSPGKGLEWLGVIWSGGTTDYNAAFISRLSFSKDNSKSQLFFKMNSLQADDTAMYYCARGNYYGMDYWGQGTSVTVSS VL: DIVVTQSPASLAVSLGQRATISCRASESIDYDGDSYVNWYQQKPGQPPNLLIYAASNLESGIPARFSGGGSGTDFTLTIHPVEEEDAATYYCLQSYETPWTFGGGTKLEIKR | 0.994 | 0.000862 | 868000
18 | SCT-Pa06 (antibody, mouse IgG1, kappa, V domains shown) VH: QVTLKESGPGILQPSQTLSLTCSFSGFSLSTYGMGVGWIRQPSGKGLEWLANIWWNDDKNYNSALKSRLTISKDTSNNQLFLRISSVDTADTATYFCAQIPAYYSNSWFAYWGHGTLVTVSA VL: ENVLTQSPAIMAASPGEKVTMTCSASSSVSSGNFHWYQQKPGTSPKLWIYRTSNLASGVPARFSGSGSGTSYSLTISSMEAEDAATYYCQQWSGYPYTFGSGTKLKIKR | 0.504 | 0.00017 | 337000
19 | SCT-Pa11 (antibody, mouse IgG1, kappa, V domains shown) VH: EVQLQQSGPELVKPGASVKMSCKASGYTFTSYVIHWVKQKPGQGLEWIGYINPYNDGTEYNEKFKGKATLTSDKSSSTAYMELSSLTSEDSAVYYCSRDDYNNRFAYWGPGTLVTVSA VL: DIQMTQSPASLSASVGETVTITCRPSENIYSYLAWYQQKQGKSPQLLVYNAKTLVEGVPSRFSGSGSGTQFSLKINSVQPEDCGSYYCLHHFGTPWTFGGGTILEIKR | 0.111 | 5.75e-05 | 517000
